Data as given in patent US20210388087A1 (Chugai, published 2021).

Legend:
[1] = target: T1, biotin-labeled human CD137 fused to human IgG1 Fc fragment (human, UniProt Q07011 24-186, biotin-labeled); experiment: bead ELISA, 1250 ng IgG, S/N over biotin-human Fc
T1 construct: also called human CD137-Fc; biotin-human CD137-Fc; not shown: human IgG1 Fc fragment

Human CD137 ECD = target: T2, Human CD137 ECD (human); experiment: SPR (Biacore), affinity of single-mutation variant against parental H183/L072
T2 construct: also called human CD137 extracellular domain; hCD137
T2 sequence (chain, as listed by the source limits assumed): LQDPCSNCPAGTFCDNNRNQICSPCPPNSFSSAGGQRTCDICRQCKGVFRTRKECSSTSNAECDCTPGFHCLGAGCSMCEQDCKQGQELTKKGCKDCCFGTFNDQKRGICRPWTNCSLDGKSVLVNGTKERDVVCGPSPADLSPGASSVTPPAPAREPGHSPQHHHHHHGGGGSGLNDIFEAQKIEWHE

T1 sequence (Q07011 24-186 limits assumed): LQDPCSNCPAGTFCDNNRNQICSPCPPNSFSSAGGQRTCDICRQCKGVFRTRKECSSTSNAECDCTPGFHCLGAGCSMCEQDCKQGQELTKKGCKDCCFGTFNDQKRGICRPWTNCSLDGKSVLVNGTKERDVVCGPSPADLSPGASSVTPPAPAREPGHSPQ

binding result [1] | fold change of affinity for CD137 (Human CD137 ECD) | Binder
binds |  | dBBDu202 (antibody, human IgG1, V domains shown, human IgG1; GLS3000 light chain) VH: QVQLVESGGGLVQPGRSLRLSCAASGFTFSNAWMHWVRQAPGKGLEWVAQIKDKGNAYAAYYAPSVKGRFTISRDDSKNSIYLQMNSLKTEDTAVYYCHYVHYSAASTVLPAFGVDAWGQGTTVTVSS VL: DIVMTQSPLSLPVTPGEPASISCRSSQSLVHSNRNTYLHWYQQKPGQAPRLLIYKVSNRFSGVPDRFSGSGSGTDFTLKISRVEAEDVGVYYCGQGTQVPYTFGQGTKLEIK
binds |  | dBBDu222 (antibody, human IgG1, V domains shown, human IgG1; GLS3000 light chain) VH: QVQLVESGGGLVQPGRSLRLSCAASGFTISSAWMHWVRQAPGKGLEWVAQIKDRANGYAAYYAPSVKGRFTISRDDSKNSIYLQMNSLKTEDTAVYYCRYVHYATAYDGFYGFGVDAWGQGTTVTVSS VL: DIVMTQSPLSLPVTPGEPASISCRSSQSLVHSNRNTYLHWYQQKPGQAPRLLIYKVSNRFSGVPDRFSGSGSGTDFTLKISRVEAEDVGVYYCGQGTQVPYTFGQGTKLEIK
binds |  | dBBDu204 (antibody, human IgG1, V domains shown, human IgG1; GLS3000 light chain) VH: QVQLVESGGGLVQPGRSLRLSCAASGFTFSNAWMHWVRQAPGKGLEWVAQIKDRSNNYATYYAESVKGRFTISRDDSKNSIYLQMNSLKTEDTAVYYCHYVHYASASTVLPAFGVDAWGQGTTVTVSS VL: DIVMTQSPLSLPVTPGEPASISCRSSQSLVHSNRNTYLHWYQQKPGQAPRLLIYKVSNRFSGVPDRFSGSGSGTDFTLKISRVEAEDVGVYYCGQGTQVPYTFGQGTKLEIK
binds |  | dBBDu173 (antibody, human IgG1, V domains shown, human IgG1; GLS3000 light chain) VH: QVQLVESGGGLVQPGRSLRLSCAASGFTFSNAWMHWVRQAPGKGLEWVAQIKDKGNLYAAYYAPSVKGRFTISRDDSKNSIYLQMNSLKTEDTAVYYCHYVHYASAGGGLSAYGVDAWGQGTTVTVSS VL: DIVMTQSPLSLPVTPGEPASISCRSSQSLVHSNRNTYLHWYQQKPGQAPRLLIYKVSNRFSGVPDRFSGSGSGTDFTLKISRVEAEDVGVYYCGQGTQVPYTFGQGTKLEIK
binds |  | dBBDu189 (antibody, human IgG1, V domains shown, human IgG1; GLS3000 light chain) VH: QVQLVESGGGLVQPGRSLRLSCAASGFTFSNAWMHWVRQAPGKGLEWIAQIKDRSNQYATYYAPSVKGRFTISRDDSKNSIYLQMNSLKTEDTAVYYCHYVHYAQASSLLPSFGVDAWGQGTTVTVSS VL: DIVMTQSPLSLPVTPGEPASISCRSSQSLVHSNRNTYLHWYQQKPGQAPRLLIYKVSNRFSGVPDRFSGSGSGTDFTLKISRVEAEDVGVYYCGQGTQVPYTFGQGTKLEIK
binds |  | dBBDu125 (antibody, human IgG1, V domains shown, human IgG1; GLS3000 light chain; also called DXDU01_3 #019; DXDU01_3_#019) VH: QVQLVESGGGLVQPGRSLRLSCAASGFTFSIAWMHWVRQAPGKGLEWVAQIKDKVNGYTAYYAESVKGRFTISRDDSKNSIYLQMNSLKTEDTAVYYCRYVHYAAYYDVLGYGGVDAWGQGTTVTVSS VL: DIVMTQSPLSLPVTPGEPASISCRSSQSLVHSNRNTYLHWYQQKPGQAPRLLIYKVSNRFSGVPDRFSGSGSGTDFTLKISRVEAEDVGVYYCGQGTQVPYTFGQGTKLEIK
binds |  | dBBDu181 (antibody, human IgG1, V domains shown, human IgG1; GLS3000 light chain) VH: QVQLVESGGGLVQPGRSLRLSCAASGFTFSNAWMHWVRQAPGKGLEWIAQIKDRGNNYNNYYAPSVKGRFTISRDDSKNSIYLQMNSLKTEDTAVYYCHYVHYATASTLLGAYGVDAWGQGTTVTVSS VL: DIVMTQSPLSLPVTPGEPASISCRSSQSLVHSNRNTYLHWYQQKPGQAPRLLIYKVSNRFSGVPDRFSGSGSGTDFTLKISRVEAEDVGVYYCGQGTQVPYTFGQGTKLEIK
binds |  | dBBDu193 (antibody, human IgG1, V domains shown, human IgG1; GLS3000 light chain) VH: QVQLVESGGGLVQPGRSLRLSCAASGFTFSNAWMHWVRQAPGKGLEWVAQIKDRSNQYATYYAPSVKGRFTISRDDSKNSIYLQMNSLKTEDTAVYYCHYVHYSAASTLLPSFGVDAWGQGTTVTVSS VL: DIVMTQSPLSLPVTPGEPASISCRSSQSLVHSNRNTYLHWYQQKPGQAPRLLIYKVSNRFSGVPDRFSGSGSGTDFTLKISRVEAEDVGVYYCGQGTQVPYTFGQGTKLEIK

Further lines, the binder ahead of its results:

Binder | binding result [1] | fold change of affinity for CD137 (Human CD137 ECD)
dBBDu167 (antibody, human IgG1, V domains shown, human IgG1; GLS3000 light chain) VH: QVQLVESGGGLVQPGRSLRLSCAASGFTFSNAWMHWVRQAPGKGLEWVAQIKDKGNLYAAYYAPSVKGRFTISRDDSKNSIYLQMNSLKTEDTAVYYCHYVHYASAGGGLPGFGVDAWGQGTTVTVSS VL: DIVMTQSPLSLPVTPGEPASISCRSSQSLVHSNRNTYLHWYQQKPGQAPRLLIYKVSNRFSGVPDRFSGSGSGTDFTLKISRVEAEDVGVYYCGQGTQVPYTFGQGTKLEIK | binds | 
Dual-Fab H183/L072 variant with single light chain mutation K50Y (Kabat) (antibody, name in Kabat numbering, V domains shown, expressed as an antibody in Expi293 and purified on Protein A; also called dBBDu183H / dBBDu072L K50Y) VH: QVQLVESGGGLVQPGRSLRLSCAASGFTFSNAWMHWVRQAPGKGLEWVAQIKDKGNAYAAYYAPSVKGRFTISRDDSKNSIYLQMNSLKTEDTAVYYCHYVHYASASTVLPAFGVDAWGQGTTVTVSS VL: DIVMTQSPLSLPVTPGEPASISCQASQELVHMNRNTYLHWYQQKPGQAPRLLIYYVSNRFPGVPDRFSGSGSGTDFTLKISRVEAEDVGVYYCAQGTSVPFTFGQGTKLEIK |  | 0 fold
dBBDu183 (antibody, human IgG1, V domains shown, human IgG1; GLS3000 light chain) VH: QVQLVESGGGLVQPGRSLRLSCAASGFTFSNAWMHWVRQAPGKGLEWVAQIKDKGNAYAAYYAPSVKGRFTISRDDSKNSIYLQMNSLKTEDTAVYYCHYVHYASASTVLPAFGVDAWGQGTTVTVSS VL: DIVMTQSPLSLPVTPGEPASISCRSSQSLVHSNRNTYLHWYQQKPGQAPRLLIYKVSNRFSGVPDRFSGSGSGTDFTLKISRVEAEDVGVYYCGQGTQVPYTFGQGTKLEIK | binds | 
dBBDu174 (antibody, human IgG1, V domains shown, human IgG1; GLS3000 light chain) VH: QVQLVESGGGLVQPGRSLRLSCAASGFTFSSAWMHWVRQAPGKGLEWVAQIKDRASAYNAYYAESVKGRFTISRDDSKNSIYLQMNSLKTEDTAVYYCRYVHYPSYVSFLPYYGVDAWGQGTTVTVSS VL: DIVMTQSPLSLPVTPGEPASISCRSSQSLVHSNRNTYLHWYQQKPGQAPRLLIYKVSNRFSGVPDRFSGSGSGTDFTLKISRVEAEDVGVYYCGQGTQVPYTFGQGTKLEIK | binds | 
dBBDu179 (antibody, human IgG1, V domains shown, human IgG1; GLS3000 light chain) VH: QVQLVESGGGLVQPGRSLRLSCAASGFTFSNAWMHWVRQAPGKGLEWVAQIKDRSNQYATYYAPSVKGRFTISRDDSKNSIYLQMNSLKTEDTAVYYCHYVHYASASTVLPAFGVDAWGQGTTVTVSS VL: DIVMTQSPLSLPVTPGEPASISCRSSQSLVHSNRNTYLHWYQQKPGQAPRLLIYKVSNRFSGVPDRFSGSGSGTDFTLKISRVEAEDVGVYYCGQGTQVPYTFGQGTKLEIK | binds | 
dBBDu205 (antibody, human IgG1, V domains shown, human IgG1; GLS3000 light chain) VH: QVQLVESGGGLVQPGRSLRLSCAASGFTFSNAWMHWVRQAPGKGLEWVAQIKDRSQLYAAYYAPSVKGRFTISRDDSKNSIYLQMNSLKTEDTAVYYCHYVHYASASTVLPAFGVDAWGQGTTVTVSS VL: DIVMTQSPLSLPVTPGEPASISCRSSQSLVHSNRNTYLHWYQQKPGQAPRLLIYKVSNRFSGVPDRFSGSGSGTDFTLKISRVEAEDVGVYYCGQGTQVPYTFGQGTKLEIK | binds | 
dBBDu186 (antibody, human IgG1, V domains shown, human IgG1; GLS3000 light chain) VH: QVQLVESGGGLVQPGRSLRLSCAASGFTFSNAWMHWVRQAPGKGLEWVAQIKDRSNQYATYYAPSVKGRFTISRDDSKNSIYLQMNSLKTEDTAVYYCHYVHYAQASTVLPAFGVDAWGQGTTVTVSS VL: DIVMTQSPLSLPVTPGEPASISCRSSQSLVHSNRNTYLHWYQQKPGQAPRLLIYKVSNRFSGVPDRFSGSGSGTDFTLKISRVEAEDVGVYYCGQGTQVPYTFGQGTKLEIK | binds | 
dBBDu196 (antibody, human IgG1, V domains shown, human IgG1; GLS3000 light chain) VH: QVQLVESGGGLVQPGRSLRLSCAASGFTFSNAWMHWVRQAPGKGLEWVAQIKDRGNAYNAYYAESVKGRFTISRDDSKNSIYLQMNSLKTEDTAVYYCHYVHYASASTVLPAFGVDAWGQGTTVTVSS VL: DIVMTQSPLSLPVTPGEPASISCRSSQSLVHSNRNTYLHWYQQKPGQAPRLLIYKVSNRFSGVPDRFSGSGSGTDFTLKISRVEAEDVGVYYCGQGTQVPYTFGQGTKLEIK | binds | 
dBBDu199 (antibody, human IgG1, V domains shown, human IgG1; GLS3000 light chain) VH: QVQLVESGGGLVQPGRSLRLSCAASGFTFSNAWMHWVRQAPGKGLEWVAQIKDKQSGYNTYYAPSVKGRFTISRDDSKNSIYLQMNSLKTEDTAVYYCHYVHYASASTVLPAFGVDAWGQGTTVTVSS VL: DIVMTQSPLSLPVTPGEPASISCRSSQSLVHSNRNTYLHWYQQKPGQAPRLLIYKVSNRFSGVPDRFSGSGSGTDFTLKISRVEAEDVGVYYCGQGTQVPYTFGQGTKLEIK | binds | 
Dual-Fab H183/L072 variant with single light chain mutation A89Y (Kabat) (antibody, name in Kabat numbering, V domains shown, expressed as an antibody in Expi293 and purified on Protein A; also called dBBDu183H / dBBDu072L A89Y) VH: QVQLVESGGGLVQPGRSLRLSCAASGFTFSNAWMHWVRQAPGKGLEWVAQIKDKGNAYAAYYAPSVKGRFTISRDDSKNSIYLQMNSLKTEDTAVYYCHYVHYASASTVLPAFGVDAWGQGTTVTVSS VL: DIVMTQSPLSLPVTPGEPASISCQASQELVHMNRNTYLHWYQQKPGQAPRLLIYKVSNRFPGVPDRFSGSGSGTDFTLKISRVEAEDVGVYYCYQGTSVPFTFGQGTKLEIK |  | 0 fold
Dual-Fab H183/L072 variant with single light chain mutation F96Y (Kabat) (antibody, name in Kabat numbering, V domains shown, expressed as an antibody in Expi293 and purified on Protein A; also called dBBDu183H / dBBDu072L F96Y) VH: QVQLVESGGGLVQPGRSLRLSCAASGFTFSNAWMHWVRQAPGKGLEWVAQIKDKGNAYAAYYAPSVKGRFTISRDDSKNSIYLQMNSLKTEDTAVYYCHYVHYASASTVLPAFGVDAWGQGTTVTVSS VL: DIVMTQSPLSLPVTPGEPASISCQASQELVHMNRNTYLHWYQQKPGQAPRLLIYKVSNRFPGVPDRFSGSGSGTDFTLKISRVEAEDVGVYYCAQGTSVPYTFGQGTKLEIK |  | 0.6 fold
Dual-Fab H183/L072 variant with single light chain mutation F55Y (Kabat) (antibody, name in Kabat numbering, V domains shown, expressed as an antibody in Expi293 and purified on Protein A; also called dBBDu183H / dBBDu072L F55Y) VH: QVQLVESGGGLVQPGRSLRLSCAASGFTFSNAWMHWVRQAPGKGLEWVAQIKDKGNAYAAYYAPSVKGRFTISRDDSKNSIYLQMNSLKTEDTAVYYCHYVHYASASTVLPAFGVDAWGQGTTVTVSS VL: DIVMTQSPLSLPVTPGEPASISCQASQELVHMNRNTYLHWYQQKPGQAPRLLIYKVSNRYPGVPDRFSGSGSGTDFTLKISRVEAEDVGVYYCAQGTSVPFTFGQGTKLEIK |  | 0 fold
